Test results taken from US20150353645A1.

Key:
[1] = biological target: MUC1 peptide-biotin (cat#353951, American Peptide Company); experiment: ELISA at 2 ug/ml mAb, MUC1 peptide-biotin on NeutrAvidin; PBS background 0.08
[2] = biological target: MUC1 peptide-biotin (cat#353951, American Peptide Company); experiment: ELISA at 2 ug/ml mAb (IgM), MUC1 peptide-biotin on NeutrAvidin; PBS background 0.12

| ELISA signal (unit not given) [1] | ELISA signal (unit not given) [2] | Binder |
| --- | --- | --- |
| 0.08 |  | human anti-GD2 monoclonal antibody 31F9 (antibody, human IgG1, V domains shown) VH: QVQLLESGAEVKKPGASVKVSCEASGYTFTSSDINWVRQATGQGLEWMGWMNPNSGNTGYAQKFQGRVTMTRNTSISTAYMELSSLRSEDTAVYYCARERPRRRGGGFDIWGQGTMVTVSS VL: DIRMTQSPSSLSASVGDRVTITCRASQGISNYLAWYQQKPGKVPKFLIYAASTLQSGVPSRFSGSGSGTDFTLTISSLQPEDVATYYCQKYNSAPWTFGQGTKVEIK |
|  | 0.09 | human anti-GD2 monoclonal antibody 2E12 (antibody, human IgM, V domains shown) VH: QVQLLESGAEVKKPGASVKVSCKASGYTFTSYAMHWVRQAPGQRLEWMGWINAGNGNTIYSQKFQARVTITRDTSASTAYMELSSLRSEDTAVYYCARWVGGVASYFDYWGQGTLVTVSS VL: EIVLTQSPLSLSVTPGEPASISCRSSQSLLHRNGYNYFDWYLQQPGQSPQLLIYLGSNRASGVPDRFSGSGSGTDFTLKISRVEAEDVGVYYCMQALQTPYTFGQGTKLEIK |
